Our source for the Kd, koff and kon values is article PMC8571081.

pKd: −log10 of the molar value.

In experiment [1] the target is Recombinant mouse IL-12Rβ2-Fc chimera protein (mouse) (UniProt P97378). Put plainly: SPR; IL-23R-Fc and IL-12Rβ2-Fc captured on a Protein A chip (~150 RU); HIL-12 (0.3-5 nM) or HIL-23 (15-1000 nM) variants injected at 30 μl/min; 25 °C, PBS pH 7.4, 0.05% P20; multi-cycle; 1:1 binding model; Biacore X100. (In general: In SPR one partner is held on a chip, and binding of the other changes the refractive index at the surface.)

The target of experiment [2] is Recombinant mouse IL-23R-Fc chimera protein (mouse) (UniProt Q8K4B4). Described as above.
Chain of UniProt Q8K4B4 (Q8K4B4 24-374, change not shown): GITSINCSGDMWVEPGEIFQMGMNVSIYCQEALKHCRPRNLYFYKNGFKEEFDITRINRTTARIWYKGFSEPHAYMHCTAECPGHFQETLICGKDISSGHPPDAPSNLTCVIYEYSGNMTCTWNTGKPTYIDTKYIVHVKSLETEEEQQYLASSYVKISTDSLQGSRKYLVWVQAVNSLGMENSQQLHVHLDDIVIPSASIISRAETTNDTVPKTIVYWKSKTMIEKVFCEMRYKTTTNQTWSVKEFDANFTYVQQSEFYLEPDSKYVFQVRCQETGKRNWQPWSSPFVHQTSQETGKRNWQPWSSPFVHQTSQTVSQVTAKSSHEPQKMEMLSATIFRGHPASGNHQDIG

Chain of UniProt P97378 (P97378 24-637, stated change not applied): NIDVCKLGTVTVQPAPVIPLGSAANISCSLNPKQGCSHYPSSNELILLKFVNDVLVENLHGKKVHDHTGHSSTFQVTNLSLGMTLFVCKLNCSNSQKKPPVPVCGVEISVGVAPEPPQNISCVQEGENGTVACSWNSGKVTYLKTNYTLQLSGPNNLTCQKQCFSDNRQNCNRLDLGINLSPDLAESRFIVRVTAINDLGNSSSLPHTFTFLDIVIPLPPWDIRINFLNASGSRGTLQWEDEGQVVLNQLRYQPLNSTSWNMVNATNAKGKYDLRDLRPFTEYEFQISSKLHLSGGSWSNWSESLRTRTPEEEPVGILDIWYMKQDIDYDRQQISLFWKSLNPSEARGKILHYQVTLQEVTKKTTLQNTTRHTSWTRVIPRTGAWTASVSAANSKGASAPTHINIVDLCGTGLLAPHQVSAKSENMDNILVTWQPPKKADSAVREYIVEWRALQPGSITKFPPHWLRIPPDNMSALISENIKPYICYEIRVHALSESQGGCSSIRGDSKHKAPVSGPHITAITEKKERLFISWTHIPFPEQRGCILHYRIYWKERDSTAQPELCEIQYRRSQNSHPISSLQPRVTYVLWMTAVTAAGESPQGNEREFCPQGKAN

Take “murine Hyper-IL-12 (HIL-12), purified with Twin-Strep-tag (ligand)”: in experiment [1], the negative-log Kd (pKd) (usually the negative decadic logarithm of the Kd, by convention in mol/L) was 9.01; the off-rate constant (koff) (as a rule, the rate constant with which the complex falls apart) is 0.0019 s⁻¹; the kon (commonly the second-order rate constant of association) amounted to 1.9e+06 M⁻¹ s⁻¹.
On the same counts, the results for “HIL-12D36K/W37K/T38K, purified with Twin-Strep-tag (ligand)” are 9.08, 0.0027 s⁻¹ and 3.2e+06 M⁻¹ s⁻¹.
In the case of “HIL-23D36K/W37K/T38K, purified with Twin-Strep-tag (from UniProt P43432 23-335) (ligand)”, in experiment [2], the pKd is 7.24, the koff stood at 0.0011 s⁻¹ and the kon worked out at 19000 M⁻¹ s⁻¹.
On the same counts, the results for “murine Hyper-IL-23 (HIL-23), purified with Twin-Strep-tag (from UniProt P43432 23-335) (ligand)” are 7.40, 0.0012 s⁻¹ and 30000 M⁻¹ s⁻¹.
